In IntAct's records for PubMed 29892012:

B1: Transmembrane protein 218 (Homo sapiens), A2RU14 (parent)
chain: MAGTVLGVGAGVFILALLWVAVLLLCVLLSRASGAARFSVIFLFFGAVIITSVLLLFPRAGEFPAPEVEVKIVDDFFIGRYVLLAFLSAIFLGGLFLVLIHYVLEPIYAKPLHSY
B2: Liprin-alpha-1 (Homo sapiens), Q13136 (parent)
chain: MMCEVMPTISEAEGPPGGGGGHGSGSPSQPDADSHFEQLMVSMLEERDRLLDTLRETQETLALTQGKLHEVGHERDSLQRQLNTALPQEFAALTKELNVCREQLLEREEEIAELKAERNNTRLLLEHLECLVSRHERSLRMTVVKRQAQSPAGVSSEVEVLKALKSLFEHHKALDEKVRERLRVALERCSLLEEELGATHKELMILKEQNNQKKTLTDGVLDINHEQENTPSTSGKRSSDGSLSHEEDLAKVIELQEIISKQSREQSQMKERLASLSSHVTELEEDLDTARKDLIKSEEMNTKLQRDVREAMAQKEDMEERITTLEKRYLAAQREATSVHDLNDKLENEIANKDSMHRQTEDKNRQLQERLELAEQKLQQTLRKAETLPEVEAELAQRVAALSKAEERHGNIEERLRQMEAQLEEKNQELQRARQREKMNEEHNKRLSDTVDKLLSESNERLQLHLKERMAALEDKNSLLREVESAKKQLEETQHDKDQLVLNIEALRAELDHMRLRGASLHHGRPHLGSVPDFRFPMADGHTDSYSTSAVLRRPQKGRLAALRDEPSKVQTLNEQDWERAQQASVLANVAQAFESDADVSDGEDDRDTLLSSVDLLSPSGQADAHTLAMMLQEQLDAINKEIRLIQEEKENTEQRAEEIESRVGSGSLDNLGRFRSMSSIPPYPASSLASSSPPGSGRSTPRRIPHSPAREVDRLGVMTLLPPSREEVRDDKTTIKCETSPPSSPRALRLDRLHKGALHTVSHEDIRDIRNSTGSQDGPVSNPSSSNSSQDSLHKAPKKKGIKSSIGRLFGKKEKGRPGQTGKEALGQAGVSETDNSSQDALGLSKLGGQAEKNRKLQKKHELLEEARRQGLPFAQWDGPTVVVWLELWVGMPAWYVAACRANVKSGAIMSALSDTEIQREIGISNPLHRLKLRLAIQEIMSLTSPSAPPTSRTTLAYGDMNHEWIGNEWLPSLGLPQYRSYFMECLVDARMLDHLTKKDLRGQLKMVDSFHRNSFQCGIMCLRRLNYDRKELERKREESQSEIKDVLVWSNDRVIRWILSIGLKEYANNLIESGVHGALLALDETFDFSALALLLQIPTQNTQARAVLEREFNNLLVMGTDRRFDEDDDKSFRRAPSWRKKFRPKDIRGLAAGSAETLPANFRVTSSMSSPSMQPKKMQMDGNVSGTQRLDSATVRTYSC
partner: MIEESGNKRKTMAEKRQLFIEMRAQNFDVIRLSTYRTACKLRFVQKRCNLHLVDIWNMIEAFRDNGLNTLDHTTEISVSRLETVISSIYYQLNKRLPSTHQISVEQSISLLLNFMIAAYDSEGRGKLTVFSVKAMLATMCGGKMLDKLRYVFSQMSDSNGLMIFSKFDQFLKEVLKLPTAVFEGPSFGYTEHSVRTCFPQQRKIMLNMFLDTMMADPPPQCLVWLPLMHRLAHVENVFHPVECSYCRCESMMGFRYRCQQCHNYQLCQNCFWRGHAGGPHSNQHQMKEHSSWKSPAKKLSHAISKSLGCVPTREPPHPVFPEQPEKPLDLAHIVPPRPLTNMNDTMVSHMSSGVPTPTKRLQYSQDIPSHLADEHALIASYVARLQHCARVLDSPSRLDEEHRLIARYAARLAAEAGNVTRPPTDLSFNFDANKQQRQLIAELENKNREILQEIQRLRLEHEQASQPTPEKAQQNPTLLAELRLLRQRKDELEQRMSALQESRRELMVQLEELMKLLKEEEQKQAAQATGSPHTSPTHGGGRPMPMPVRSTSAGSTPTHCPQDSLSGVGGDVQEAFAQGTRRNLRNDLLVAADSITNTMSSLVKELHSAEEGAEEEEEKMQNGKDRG
B3: Ribonuclease inhibitor (Homo sapiens), P13489 (parent)
chain: MSLDIQSLDIQCEELSDARWAELLPLLQQCQVVRLDDCGLTEARCKDISSALRVNPALAELNLRSNELGDVGVHCVLQGLQTPSCKIQKLSLQNCCLTGAGCGVLSSTLRTLPTLQELHLSDNLLGDAGLQLLCEGLLDPQCRLEKLQLEYCSLSAASCEPLASVLRAKPDFKELTVSNNDINEAGVRVLCQGLKDSPCQLEALKLESCGVTSDNCRDLCGIVASKASLRELALGSNKLGDVGMAELCPGLLHPSSRLRTLWIWECGITAKGCGDLCRVLRAKESLKELSLAGNELGDEGARLLCETLLEPGCQLESLWVKSCSFTAACCSHFSSVLAQNRFLLELQISNNRLEDAGVRELCQGLGQPGSVLRVLWLADCDVSDSSCSSLAATLLANHSLRELDLSNNCLGDAGILQLVESVRQPGCLLEQLVLYDIYWSEEMEDRLQALEKDKPSLRVIS
B4: SOSS complex subunit C (Homo sapiens), Q9NRY2 (parent)
chain: MAANSSGQGFQNKNRVAILAELDKEKRKLLMQNQSSTNHPGASIALSRPSLNKDFRDHAEQQHIAAQQKAALQHAHAHSSGYFITQDSAFGNLILPVLPRLDPE
B5: Transmembrane protein 218 (Homo sapiens), A2RU14 (parent)
chain: B1 chain
partner: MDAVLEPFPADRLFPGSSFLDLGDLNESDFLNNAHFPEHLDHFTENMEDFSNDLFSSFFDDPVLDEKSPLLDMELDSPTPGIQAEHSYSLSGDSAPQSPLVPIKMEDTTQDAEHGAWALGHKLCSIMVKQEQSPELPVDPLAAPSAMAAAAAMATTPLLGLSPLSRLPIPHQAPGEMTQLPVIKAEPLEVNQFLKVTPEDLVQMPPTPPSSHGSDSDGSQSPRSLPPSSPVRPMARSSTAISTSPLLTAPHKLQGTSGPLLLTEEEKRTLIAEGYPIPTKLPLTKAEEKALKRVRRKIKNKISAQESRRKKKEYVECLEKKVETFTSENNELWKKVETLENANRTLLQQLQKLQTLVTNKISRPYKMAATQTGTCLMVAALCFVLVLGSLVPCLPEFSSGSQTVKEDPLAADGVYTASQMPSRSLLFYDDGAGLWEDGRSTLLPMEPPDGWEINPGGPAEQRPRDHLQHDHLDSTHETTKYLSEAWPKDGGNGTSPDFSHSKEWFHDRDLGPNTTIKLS

Variants of: B1
Conditions: with pcna_human PCNA

| effect of a mutation on the interaction | Variant |
| --- | --- |
| with no effect | P66S |

Variants of: B2
Conditions: with dtnb_human DTNB

| effect of a mutation on the interaction | Variant |
| --- | --- |
| with no effect | P389L |

Variants of: B2
Conditions: with dtnb_human DTNB
Remark: another data set of the same source

| effect of a mutation on the interaction | Variant |
| --- | --- |
| with no effect | L330F |

Variants of: B3
Conditions: with sdcb1_human SDCBP

| effect of a mutation on the interaction | Variant |
| --- | --- |
| with no effect | V358M |

Variants of: B4
Conditions: with rbpms_human RBPMS

| effect of a mutation on the interaction | Variant |
| --- | --- |
| with no effect | K28T |

Variants of: B5
Conditions: with cr3l1_human CREB3L1, Q96BA8

| effect of a mutation on the interaction | Variant |
| --- | --- |
| with no effect | P66S |
